Reference: publication PMC4988983

Experiments:
[1] = biological target: 2-Cys peroxiredoxin from Anabaena sp. PCC 7120 (Anabaena sp. PCC 7120 (endogenous in Anabaena cells)); experiment: non-reducing SDS-PAGE with Western blot; soluble extracts of Anabaena WT and ΔntrC cells treated with H2O2, methyl viologen or high light; dimer and monomer bands of 2-Cys Prx
[2] = biological target: 2-Cys peroxiredoxin from Anabaena sp. PCC 7120 (Anabaena sp. PCC 7120 (endogenous in Anabaena cells)); experiment: SEC; soluble extracts (200 µg total protein) of untreated Anabaena cells (0 h) on Superdex 200 HR 10/30, 50 mM KH2PO4 pH 7.1, 150 mM NaCl, 0.5 ml/min; fractions read by Western blot
[3] = biological target: NADPH-thioredoxin reductase C from Anabaena sp. PCC 7120 (Anabaena sp. PCC 7120 (endogenous in Anabaena cells)); experiment: as above

| Substance | stoichiometry N [1] | stoichiometry N [2] | stoichiometry N [3] |
| --- | --- | --- | --- |
| 2-Cys peroxiredoxin from Anabaena sp. PCC 7120 (enzyme) | 2 | 2 | – |
| NADPH-thioredoxin reductase C from Anabaena sp. PCC 7120 (enzyme) | – | – | 2 |
